According to publication PMC5931518, “Architecture of the U6 snRNP reveals specific recognition of 3′-end processed U6 snRNA”:
Substitutions are numbered along the chain they refer to.

Tests used:
[1] = biological target: Prp24-8Asub;Lsm2-8 mostly wild type (Saccharomyces cerevisiae;Saccharomyces cerevisiae) (UniProt P38203+P57743+P40070+P40089+Q06406+P53905+P47093); experiment: EMSA; conditions: Lsm2-8 titrated onto U6 pre-bound with 20 nM Prp24-8Asub; FP: 50 mM KCl or as listed 100 mM KCl in both 2x buffers, HEPES (10 mM acid + 10 mM Na salt), 10% glycerol, 1 mM TCEP, tRNA, heparin, BSA, 0.3 nM FAM-RNA …
Sequence of Prp24-8Asub;Lsm2-8 mostly wild type (Saccharomyces cerevisiae;Saccharomyces cerevisiae) (P40070 whole entry, looked up, one chain of several): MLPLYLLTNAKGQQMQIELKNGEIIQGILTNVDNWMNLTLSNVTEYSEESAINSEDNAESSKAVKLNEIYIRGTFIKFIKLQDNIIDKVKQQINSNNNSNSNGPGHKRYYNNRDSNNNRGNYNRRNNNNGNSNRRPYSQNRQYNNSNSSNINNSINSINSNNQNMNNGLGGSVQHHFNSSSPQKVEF

[2] = biological target: Prp24 (EMSA, wild type);Lsm2-8 mostly wild type (Saccharomyces cerevisiae;Saccharomyces cerevisiae) (UniProt P38203+P57743+P40070+P40089+Q06406+P53905+P47093); experiment: EMSA; conditions: Lsm2-8 titrated onto U6 pre-bound with 20 nM Prp24; FP: 50 mM KCl or as listed 100 mM KCl in both 2x buffers, HEPES (10 mM acid + 10 mM Na salt), 10% glycerol, 1 mM TCEP, tRNA, heparin, BSA, 0.3 nM FAM-RNA …
Sequence of Prp24 (EMSA, wild type);Lsm2-8 mostly wild type (Saccharomyces cerevisiae;Saccharomyces cerevisiae) (P40070 whole entry, looked up, one chain of several): as above

[3] = biological target: T1, Lsm2-8 construct 2 (WT) (Saccharomyces cerevisiae, UniProt P38203;P57743;P40070;P40089;Q06406;P53905;P47093 …); experiment: fluorescence polarization; FP: 50 mM KCl or as listed 100 mM KCl in both 2x buffers, HEPES (10 mM acid + 10 mM Na salt), 10% glycerol, 1 mM TCEP, tRNA, heparin, BSA, 0.3 nM FAM-RNA; EMSA: 100 mM KCl, 20% sucrose, 20 mM bis-tris/10 mM HCl pH ~6.5, 1 mM EDTA, 1 mM TCEP, 0.01% Triton X-100, tRNA, heparin, BSA, room temperature, gel at 4 C; conditions: protein: recombinant; tags: Lsm8 C-terminal His6 (non-cleavable); Lsm3 C-terminal StrepII (non-cleavable); MBP on Lsm6 (TEV-labile); copies: 1;1;1;1;1;1;1; label: 5'-FAM; single strand
T1 sequence 1: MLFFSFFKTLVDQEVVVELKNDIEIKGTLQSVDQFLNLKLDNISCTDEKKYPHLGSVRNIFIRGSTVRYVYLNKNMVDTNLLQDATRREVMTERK
T1 sequence 2: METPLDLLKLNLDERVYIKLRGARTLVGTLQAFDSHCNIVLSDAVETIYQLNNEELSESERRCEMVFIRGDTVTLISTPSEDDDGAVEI
T1 sequence 3: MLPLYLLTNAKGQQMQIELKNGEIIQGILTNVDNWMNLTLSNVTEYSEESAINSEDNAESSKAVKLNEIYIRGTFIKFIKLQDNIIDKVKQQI
T1 sequence 4: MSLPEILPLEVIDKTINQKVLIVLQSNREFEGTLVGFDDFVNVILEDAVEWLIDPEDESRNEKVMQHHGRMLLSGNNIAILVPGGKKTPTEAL
T1 sequence 5: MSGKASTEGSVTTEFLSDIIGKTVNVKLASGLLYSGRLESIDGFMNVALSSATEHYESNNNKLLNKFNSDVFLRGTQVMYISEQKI
T1 sequence 6: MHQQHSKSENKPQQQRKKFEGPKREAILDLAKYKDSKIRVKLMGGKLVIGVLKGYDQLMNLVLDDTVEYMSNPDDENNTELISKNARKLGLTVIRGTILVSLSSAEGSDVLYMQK
T1 sequence 7: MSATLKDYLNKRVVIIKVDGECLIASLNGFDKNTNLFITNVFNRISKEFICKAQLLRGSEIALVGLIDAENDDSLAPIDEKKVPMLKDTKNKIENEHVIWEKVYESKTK

[4] = biological target: T2, Lsm2-8 Lsm2-K20A (Saccharomyces cerevisiae, UniProt P38203;P57743;P40070;P40089;Q06406;P53905;P47093 …, K20A); experiment: as above; conditions: protein: recombinant; tags: as P1; copies: 1;1;1;1;1;1;1; label: 5'-FAM; single strand
T2 sequence 1: T1 sequence 1 with K20A
T2 sequence 2: T1 sequence 2
T2 sequence 3: T1 sequence 3
T2 sequence 4: T1 sequence 4
T2 sequence 5: T1 sequence 5
T2 sequence 6: T1 sequence 6
T2 sequence 7: T1 sequence 7

[5] = biological target: T3, Lsm2-8 Lsm2-K20E (Saccharomyces cerevisiae, UniProt P38203;P57743;P40070;P40089;Q06406;P53905;P47093 …, K20E); experiment: as above; conditions: protein: recombinant; tags: as P1; copies: 1;1;1;1;1;1;1; label: 5'-FAM; single strand
T3 sequence 1: T1 sequence 1 with K20E
T3 sequence 2: T1 sequence 2
T3 sequence 3: T1 sequence 3
T3 sequence 4: T1 sequence 4
T3 sequence 5: T1 sequence 5
T3 sequence 6: T1 sequence 6
T3 sequence 7: T1 sequence 7

[6] = biological target: T4, Lsm2-8 Lsm8-delC (Saccharomyces cerevisiae, UniProt P38203;P57743;P40070;P40089;Q06406;P53905;P47093 …); experiment: as above; conditions: protein: recombinant; tags: as P1; copies: 1;1;1;1;1;1;1; label: 5'-FAM; single strand
T4 sequence 1: T1 sequence 1
T4 sequence 2: T1 sequence 2
T4 sequence 3: T1 sequence 3
T4 sequence 4: T1 sequence 4
T4 sequence 5: T1 sequence 5
T4 sequence 6: T1 sequence 6
T4 sequence 7: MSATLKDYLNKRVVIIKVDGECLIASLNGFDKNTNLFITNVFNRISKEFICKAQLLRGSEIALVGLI

[7] = biological target: T5, Lsm2-8 Lsm3-R21E (Saccharomyces cerevisiae, UniProt P38203;P57743;P40070;P40089;Q06406;P53905;P47093 …, R21E); experiment: as above; conditions: protein: recombinant; tags: as P1; copies: 1;1;1;1;1;1;1; label: 5'-FAM; single strand
T5 sequence 1: T1 sequence 1
T5 sequence 2: T1 sequence 2 with R21E
T5 sequence 3: T1 sequence 3
T5 sequence 4: T1 sequence 4
T5 sequence 5: T1 sequence 5
T5 sequence 6: T1 sequence 6
T5 sequence 7: T1 sequence 7

[8] = biological target: T6, Lsm2-8 Lsm3-R21A (Saccharomyces cerevisiae, UniProt P38203;P57743;P40070;P40089;Q06406;P53905;P47093 …, R21A); experiment: as above; conditions: protein: recombinant; tags: as P1; copies: 1;1;1;1;1;1;1; label: 5'-FAM; single strand
T6 sequence 1: T1 sequence 1
T6 sequence 2: T1 sequence 2 with R21A
T6 sequence 3: T1 sequence 3
T6 sequence 4: T1 sequence 4
T6 sequence 5: T1 sequence 5
T6 sequence 6: T1 sequence 6
T6 sequence 7: T1 sequence 7

[9] = biological target: Prp24-8Asub (eight RRM4 residues at the Lsm2 interface substituted with alanine) (S. cerevisiae) (UniProt P49960); experiment: native gel or EMSA; different amounts of Lsm2–8 added to 0.5 nM Cy3-U6 1–112 pre-incubated 20 min with 20 nM Prp24; 100 mM KCl, bis-tris pH ~6.5, room temperature; 6% native polyacrylamide gel at 4 °C; Hill fit, average of three technical replicates
[10] = biological target: T7, wild-type Prp24 for electrophoretic mobility shift assays (TEV-labile N-terminal polyhistidine tag removed) (S. cerevisiae, UniProt P49960 1-444); experiment: EMSA; Prp24 pre-bound to U6 RNA (U6/Prp24 complex)
T7 chain: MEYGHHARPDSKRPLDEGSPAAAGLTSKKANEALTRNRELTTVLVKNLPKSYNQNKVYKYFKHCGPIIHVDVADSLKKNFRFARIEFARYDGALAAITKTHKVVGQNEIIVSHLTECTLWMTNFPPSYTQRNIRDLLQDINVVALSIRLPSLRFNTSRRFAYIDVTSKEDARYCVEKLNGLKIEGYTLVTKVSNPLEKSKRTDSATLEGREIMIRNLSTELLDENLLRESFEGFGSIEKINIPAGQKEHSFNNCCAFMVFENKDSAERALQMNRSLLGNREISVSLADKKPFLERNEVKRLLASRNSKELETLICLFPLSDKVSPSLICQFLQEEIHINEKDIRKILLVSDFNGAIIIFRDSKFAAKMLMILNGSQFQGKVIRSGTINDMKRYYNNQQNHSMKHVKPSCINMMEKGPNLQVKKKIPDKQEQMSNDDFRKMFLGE

[11] = biological target: Prp24-8Asub (eight RRM4 residues at the Lsm2 interface substituted with alanine) (S. cerevisiae) (UniProt P49960)
[12] = biological target: T8, Prp24-8Asub (eight RRM4 residues at the Lsm2 interface substituted with alanine) (S. cerevisiae, UniProt P49960 1-444, D361A | S362A | K363A | K367A | L369A | M370A | I371A | N373A); experiment: EMSA; Prp24-8Asub pre-bound to U6 RNA (U6/Prp24 complex)
T8 sequence: T7 chain with D361A, S362A, K363A, K367A, L369A, M370A, I371A, N373A

**Q.** Which results are given for Cy3-U6 1-112?
**A.** Kd [1]: 5.7 nM; Kd [2]: 2.8 nM

**Q.** Which Kd [3] does the source give for UUUCGUUUUU (ssRNA, none (3' phosphate removed with CIP)) [U6 104-113 2',3'-cis diol] here?
**A.** The Kd was 37.4 ± 4.5 nM.

**Q.** What about the Kd [4] of the same molecule?
**A.** Its Kd is 522 ± 48 nM.

**Q.** And the Kd [5]?
**A.** Its Kd is 1870 ± 370 nM.

**Q.** What about the Kd [6] of the same molecule?
**A.** The Kd was 277 ± 32 nM.

**Q.** And the Kd [7]?
**A.** Its Kd is 195 ± 27 nM.

**Q.** What about the Kd [8] of the same molecule?
**A.** Its Kd is 40.8 ± 3.3 nM.

**Q.** UUUCGUUUUU (ssRNA, 3' phosphate) [U6 104-113 3' phosphate] was tested. Which Kd [3] did it give?
**A.** The Kd was 6.13 ± 0.87 nM.

**Q.** What about the Kd [4] of the same molecule?
**A.** The Kd was 841 ± 89 nM.

**Q.** And the Kd [5]?
**A.** The Kd was 2320 ± 450 nM.

**Q.** What about the Kd [6] of the same molecule?
**A.** The Kd was 502 ± 47 nM.

**Q.** And the Kd [7]?
**A.** The Kd was 1150 ± 190 nM.

**Q.** What about the Kd [8] of the same molecule?
**A.** The Kd was 123 ± 12 nM.

B1: Lsm2–8 heteroheptameric ring, "mostly wild type" construct (complex)
chain 1: MGSMLFFSFFKTLVDQEVVVELKNDIEIKGTLQSVDQFLNLKLDNISCTDEKKYPHLGSVRNIFIRGSTVRYVYLNKNMVDTNLLQDATRREVMTERK
chain 2: MGSMETPLDLLKLNLDERVYIKLRGARTLVGTLQAFDSHCNIVLSDAVETIYQLNNEELSESERRCEMVFIRGDTVTLISTPSEDDDGAVEI
chain 3: MGSMLPLYLLTNAKGQQMQIELKNGEIIQGILTNVDNWMNLTLSNVTEYSEESAINSEDNAESSKAVKLNEIYIRGTFIKFIKLQDNIIDKVKQQI
chain 4: MGSMSLPEILPLEVIDKTINQKVLIVLQSNREFEGTLVGFDDFVNVILEDAVEWLIDPEDESRNEKVMQHHGRMLLSGNNIAILVPGGKKTPTEAL
chain 5: GSMSGKASTEGSVTTEFLSDIIGKTVNVKLASGLLYSGRLESIDGFMNVALSSATEHYESNNNKLLNKFNSDVFLRGTQVMYISEQKI
chain 6: MGSMHQQHSKSENKPQQQRKKFEGPKREAILDLAKYKDSKIRVKLMGGKLVIGVLKGYDQLMNLVLDDTVEYMSNPDDENNTELISKNARKLGLTVIRGTILVSLSSAEGSDVLYMQK
chain 7: GSMSATLKDYLNKRVVIIKVDGECLIASLNGFDKNTNLFITNVFNRISKEFICKAQLLRGSEIALVGLIDAENDDSLAPIDEKKVPMLKDTKNKIENEHVIWEKVYESKTK
**Q.** What does the source list for B1?
**A.** fold reduction of affinity against wild-type Prp24 (U6•Prp24 complex) [9]: 2 fold; Kd [10]: 2.8 nM; rate of in vitro annealing of U4 and U6 with Prp24-8Asub in place of wild-type Prp24 (50 nM Prp24/50 nM Lsm2–8) [11]: 2 fold slower; Kd [12]: 5.7 nM
